In patent US20230374564:

Target: T1, VWF73-G6PDH conjugate (inhibited G6PDH-VWF reporter enzyme complex), P11411
T1 chain 1: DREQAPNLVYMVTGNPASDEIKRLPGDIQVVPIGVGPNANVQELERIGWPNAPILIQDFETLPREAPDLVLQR
T1 chain 2: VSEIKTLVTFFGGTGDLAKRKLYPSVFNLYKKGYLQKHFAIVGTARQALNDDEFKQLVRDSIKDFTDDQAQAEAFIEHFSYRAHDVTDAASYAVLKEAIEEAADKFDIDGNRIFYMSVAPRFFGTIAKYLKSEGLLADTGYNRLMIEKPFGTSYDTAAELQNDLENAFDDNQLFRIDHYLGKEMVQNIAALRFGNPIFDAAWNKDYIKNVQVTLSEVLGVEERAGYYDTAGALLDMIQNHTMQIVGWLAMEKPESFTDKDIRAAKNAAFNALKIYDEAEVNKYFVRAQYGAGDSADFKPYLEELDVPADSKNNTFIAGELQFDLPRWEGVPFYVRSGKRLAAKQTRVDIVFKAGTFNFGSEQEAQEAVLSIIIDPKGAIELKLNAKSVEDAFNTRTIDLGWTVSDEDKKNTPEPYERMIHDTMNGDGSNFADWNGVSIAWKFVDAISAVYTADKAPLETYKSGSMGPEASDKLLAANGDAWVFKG

B1: ADAMTS-13 (A Disintegrin And Metalloproteinase with a Thrombospondin type 1 motif, member 13) (protein)
chain: AAGGILHLELLVAVGPDVFQAHQEDTERYVLTNLNIGAELLRDPSLGAQFRVHLVKMVILTEPEGAPNITANLTSSLLSVCGWSQTINPEDDTDPGHADLVLYITRFDLELPDGNRQVRGVTQLGGACSPTWSCLITEDTGFDLGVTIAHEIGHSFGLEHDGAPGSGCGPSGHVMASDGAAPRAGLAWSPCSRRQLLSLLSAGRARCVWDPPRPQPGSAGHPPDAQPGLYYSANEQCRVAFGPKAVACTFAREHLDMCQALSCHTDPLDQSSCSRLLVPLLDGTECGVEKWCSKGRCRSLVELTPIAAVHGRWSSWGPRSPCSRSCGGGVVTRRRQCNNPRPAFGGRACVGADLQAEMCNTQACEKTQLEFMSQQCARTDGQPLRSSPGGASFYHWGAAVPHSQGDALCRHMCRAIGESFIMKRGDSFLDGTRCMPSGPREDGTLSLCVSGSCRTFGCDGRMDSQQVWDRCQVCGGDNSTCSPRKGSFTAGRAREYVTFLTVTPNLTSVYIANHRPLFTHLAVRIGGRYVVAGKMSISPNTTYPSLLEDGRVEYRVALTEDRLPRLEEIRIWGPLQEDADIQVYRRYGEEYGNLTRPDITFTYFQPKPRQAWVWAAVRGPCSVSCGAGLRWVNYSCLDQARKELVETVQCQGSQQPPAWPEACVLEPCPPYWAVGDFGPCSASCGGGLRERPVRCVEAQGSLLKTLPPARCRAGAQQPAVALETCNPQPCPARWEVSEPSSCTSAGGAGLALENETCVPGADGLEAPVTEGPGSVDEKLPAPEPCVGMSCPPGWGHLDATSAGEKAPSPWGSIRTGAQAAHVWTPAAGSCSVSCGRGLMELRFLCMDSALRVPVQEELCGLASKPGSRREVCQAVPCPARWQYKLAACSVSCGRGVVRRILYCARAHGEDDGEEILLDTQCQGLPRPEPQEACSLEPCPPRWKVMSLGPCSASCGLGTARRSVACVQLDQGQDVEVDEAACAALVRPEASVPCLIADCTYRWHVGTWMECSVSCGDGIQRRRDTCLGPQAQAPVPADFCQHLPKPVTVRGCWAGPCVGQGTPSLVPHEEAAAPGRTTATPAGASLEWSQARGLLFSPAPQPRRLLPGPQENSVQSSACGRQHLEPTGTIDMRGPGQADCAVAIGRPLGEVVTLRVLESSLNCSAGDMLLLWGRLTWRKMCRKLLDMTFSSKTNTLVVRQRCGRPGGGVLLRYGSQLAPETFYRECDMQLFGPWGEIVSPSLSPATSNAGGCRLFINVAPHARIAIHALATNMGAGTEGANASYILIRDTHSLRTTAFHGQQVLYWESESSQAEMEFSEGFLKAQASLRGQYWTLQSWVPEMQDPQSWKGKEGT
In the case of B1, the “ADAMTS-13 activity (% of the norm); plasma of TTP patient 01” value is reported as “TTP patient 01 with 9% of the norm”, the “ADAMTS-13 activity (% of the norm); plasma of TTP patient 02” value is reported as “TTP patient 02 with 7% of the norm” and the “ADAMTS-13 activity (% of the norm); plasma of patient with ADAMTS-13 autoantibodies” value is reported as “patient with 21% of the norm”. For the same protein, the “reactivation of G6PDH activity by cleavage of coupled VWF73 (absorption at 340 nm)” value was “occurs in a concentration-dependent manner with respect to ADAMTS-13 activity”, the Δ mOD/min Average; 0% normal plasma in ADAMTS-13-deficient plasma was 208 Δ mOD/min and the Δ mOD/min Average; 5% normal plasma in ADAMTS-13-deficient plasma was 215 Δ mOD/min. The Δ mOD/min Average; 10% normal plasma in ADAMTS-13-deficient plasma was 220 Δ mOD/min, the Δ mOD/min Average; 25% normal plasma in ADAMTS-13-deficient plasma was 232 Δ mOD/min and the Δ mOD/min Average; 50% normal plasma in ADAMTS-13-deficient plasma was 256 Δ mOD/min. For the same protein, the Δ mOD/min Average; 75% normal plasma in ADAMTS-13-deficient plasma was 286 Δ mOD/min, the Δ mOD/min Average; 100% normal plasma in ADAMTS-13-deficient plasma was 311 Δ mOD/min and the Δ mOD/min Average; plasma of Healthy donor 01 was 310 Δ mOD/min. For the same protein, the Δ mOD/min Average; plasma of Healthy donor 02 was 311 Δ mOD/min, the Δ mOD/min Average; plasma of Healthy donor 03 was 307 Δ mOD/min and the Δ mOD/min Average; plasma of Healthy donor 04 was 310 Δ mOD/min. The Δ mOD/min Average; plasma of Healthy donor 05 was 314 Δ mOD/min, the Δ mOD/min Average; plasma of Patient with ADAMTS-13 autoantibodies was 228 Δ mOD/min and the Δ mOD/min Average; plasma of TTP patient 01 was 218 Δ mOD/min. The Δ mOD/min Average; plasma of TTP patient 02 was 216 Δ mOD/min, the Δ mOD/min Measurement 1; 0% normal plasma in ADAMTS-13-deficient plasma was 208 Δ mOD/min and the Δ mOD/min Measurement 1; 5% normal plasma in ADAMTS-13-deficient plasma was 216 Δ mOD/min. The Δ mOD/min Measurement 1; 10% normal plasma in ADAMTS-13-deficient plasma was 221 Δ mOD/min, the Δ mOD/min Measurement 1; 25% normal plasma in ADAMTS-13-deficient plasma was 232 Δ mOD/min and the Δ mOD/min Measurement 1; 50% normal plasma in ADAMTS-13-deficient plasma was 255 Δ mOD/min. For the same protein, the Δ mOD/min Measurement 1; 75% normal plasma in ADAMTS-13-deficient plasma was 286 Δ mOD/min, the Δ mOD/min Measurement 1; 100% normal plasma in ADAMTS-13-deficient plasma was 310 Δ mOD/min and the Δ mOD/min Measurement 1; plasma of Healthy donor 01 was 309 Δ mOD/min. For the same protein, the Δ mOD/min Measurement 1; plasma of Healthy donor 02 was 310 Δ mOD/min, the Δ mOD/min Measurement 1; plasma of Healthy donor 03 was 305 Δ mOD/min and the Δ mOD/min Measurement 1; plasma of Healthy donor 04 was 312 Δ mOD/min. For the same protein, the Δ mOD/min Measurement 1; plasma of Healthy donor 05 was 315 Δ mOD/min, the Δ mOD/min Measurement 1; plasma of Patient with ADAMTS-13 autoantibodies was 227 Δ mOD/min and the Δ mOD/min Measurement 1; plasma of TTP patient 01 was 218 Δ mOD/min. The Δ mOD/min Measurement 1; plasma of TTP patient 02 was 220 Δ mOD/min, the Δ mOD/min Measurement 2; 0% normal plasma in ADAMTS-13-deficient plasma was 208 Δ mOD/min and the Δ mOD/min Measurement 2; 5% normal plasma in ADAMTS-13-deficient plasma was 216 Δ mOD/min. The Δ mOD/min Measurement 2; 10% normal plasma in ADAMTS-13-deficient plasma was 221 Δ mOD/min, the Δ mOD/min Measurement 2; 25% normal plasma in ADAMTS-13-deficient plasma was 233 Δ mOD/min and the Δ mOD/min Measurement 2; 50% normal plasma in ADAMTS-13-deficient plasma was 257 Δ mOD/min. The Δ mOD/min Measurement 2; 75% normal plasma in ADAMTS-13-deficient plasma was 288 Δ mOD/min, the Δ mOD/min Measurement 2; 100% normal plasma in ADAMTS-13-deficient plasma was 312 Δ mOD/min and the Δ mOD/min Measurement 2; plasma of Healthy donor 01 was 310 Δ mOD/min. For the same protein, the Δ mOD/min Measurement 2; plasma of Healthy donor 02 was 311 Δ mOD/min, the Δ mOD/min Measurement 2; plasma of Healthy donor 03 was 309 Δ mOD/min and the Δ mOD/min Measurement 2; plasma of Healthy donor 04 was 311 Δ mOD/min. For the same protein, the Δ mOD/min Measurement 2; plasma of Healthy donor 05 was 312 Δ mOD/min, the Δ mOD/min Measurement 2; plasma of Patient with ADAMTS-13 autoantibodies was 228 Δ mOD/min and the Δ mOD/min Measurement 2; plasma of TTP patient 01 was 219 Δ mOD/min. The Δ mOD/min Measurement 2; plasma of TTP patient 02 was 215 Δ mOD/min, the Δ mOD/min Measurement 3; 0% normal plasma in ADAMTS-13-deficient plasma was 207 Δ mOD/min and the Δ mOD/min Measurement 3; 5% normal plasma in ADAMTS-13-deficient plasma was 214 Δ mOD/min. The Δ mOD/min Measurement 3; 10% normal plasma in ADAMTS-13-deficient plasma was 219 Δ mOD/min, the Δ mOD/min Measurement 3; 25% normal plasma in ADAMTS-13-deficient plasma was 233 Δ mOD/min and the Δ mOD/min Measurement 3; 50% normal plasma in ADAMTS-13-deficient plasma was 254 Δ mOD/min. For the same protein, the Δ mOD/min Measurement 3; 75% normal plasma in ADAMTS-13-deficient plasma was 286 Δ mOD/min, the Δ mOD/min Measurement 3; 100% normal plasma in ADAMTS-13-deficient plasma was 311 Δ mOD/min and the Δ mOD/min Measurement 3; plasma of Healthy donor 01 was 311 Δ mOD/min. The Δ mOD/min Measurement 3; plasma of Healthy donor 02 was 312 Δ mOD/min, the Δ mOD/min Measurement 3; plasma of Healthy donor 03 was 306 Δ mOD/min and the Δ mOD/min Measurement 3; plasma of Healthy donor 04 was 309 Δ mOD/min. For the same protein, the Δ mOD/min Measurement 3; plasma of Healthy donor 05 was 314 Δ mOD/min, the Δ mOD/min Measurement 3; plasma of Patient with ADAMTS-13 autoantibodies was 229 Δ mOD/min and the Δ mOD/min Measurement 3; plasma of TTP patient 01 was 218 Δ mOD/min. For the same protein, the Δ mOD/min Measurement 3; plasma of TTP patient 02 was 214 Δ mOD/min.
